Laboratory results: patent publication US12295997B2, “Prostate neoantigens and their uses” (Janssen Biotech, Inc., priority 2020, dated 2025)

B1: HYKLIQQPISLFSITDRLHKTFSQLPSVHLCSITFQWGHPPIFCSTNDICVTANFCISVTFLKPCFLLHEASASQ (peptide, listed as Homo sapiens)
chain: HYKLIQQPISLFSITDRLHKTFSQLPSVHLCSITFQWGHPPIFCSTNDICVTANFCISVTFLKPCFLLHEASASQ
B2: LLNAEDYRCAIHSKEIYLLSPSPHQAMDKFSLCCINCNLCLHVFLLLLFFQNKDVWLISNIILLWIYGGI (peptide, listed as Homo sapiens)
chain: LLNAEDYRCAIHSKEIYLLSPSPHQAMDKFSLCCINCNLCLHVFLLLLFFQNKDVWLISNIILLWIYGGI
notes: TM9SF3 alternative splicing
B3: KMRAIQAEGGHGQACCGGAWGWAPGDGGPQGMLTHTLPTLGFQSAWTWRREDADRAWRTPKACASRRWSI (peptide, listed as Homo sapiens)
chain: KMRAIQAEGGHGQACCGGAWGWAPGDGGPQGMLTHTLPTLGFQSAWTWRREDADRAWRTPKACASRRWSI
notes: LRRC45 alternative splicing
B4: QNLQNGGGSRSSATLPGRRRRRWLRRRRQPISVAPAGPPRRPNQKPNPPGGARCVIMRPTWPGTSAFT (peptide, listed as Homo sapiens)
chain: QNLQNGGGSRSSATLPGRRRRRWLRRRRQPISVAPAGPPRRPNQKPNPPGGARCVIMRPTWPGTSAFT
notes: ZFHX3 E763Sfs*61
B5: FGLTTLAGRSSHGTSGLRAATHTKSGDGGQGAARQCEKLLELARATRPWGRSTSASSRWTHRGYMCPPRCAVACW (peptide, listed as Homo sapiens)
chain: FGLTTLAGRSSHGTSGLRAATHTKSGDGGQGAARQCEKLLELARATRPWGRSTSASSRWTHRGYMCPPRCAVACW
notes: PEX10 alternative splicing
B6: PVAIKPGTGPPNNSSIHGGSKRSENSYCRDLRGQLRAICCSSYSHDRHTTEERGSRGRHVWRIRRLHTSGLPCCCHSGPHPRRLPDILRLVTSTKTDHTNTTEGTLDYL (peptide, listed as Homo sapiens)
chain: PVAIKPGTGPPNNSSIHGGSKRSENSYCRDLRGQLRAICCSSYSHDRHTTEERGSRGRHVWRIRRLHTSGLPCCCHSGPHPRRLPDILRLVTSTKTDHTNTTEGTLDYL
notes: RBM47 alternative splicing
B7: LQAAASGQGKQGVPCPWGCCAYAESPRALISGDAPSQVEREVPGPCLNTHSLSHRSPQLPGLPHPKQPSV (peptide, listed as Homo sapiens)
chain: LQAAASGQGKQGVPCPWGCCAYAESPRALISGDAPSQVEREVPGPCLNTHSLSHRSPQLPGLPHPKQPSV
notes: TONSL alternative splicing
B8: FVSLTAIQMASSATPWGRWPVATPTAACPRRRPSSLPTGGDSASKKPISRRAPWQPWACPGRSVNSAAPRAWCPPATTPRTQSPSRDLRPRCLSSWSS (peptide, listed as Homo sapiens)
chain: FVSLTAIQMASSATPWGRWPVATPTAACPRRRPSSLPTGGDSASKKPISRRAPWQPWACPGRSVNSAAPRAWCPPATTPRTQSPSRDLRPRCLSSWSS
notes: FASN alternative splicing
B9: LWFQSSELSPTGAPWPSRRPTWRGTTVSPRTATSSARTCCGTKWPSSQEAALGLGSGLLRFSCGTAAIR (peptide, listed as Homo sapiens)
chain: LWFQSSELSPTGAPWPSRRPTWRGTTVSPRTATSSARTCCGTKWPSSQEAALGLGSGLLRFSCGTAAIR
notes: NME4->DECR2 gene fusion
B10: KGSVERRSVSLGHPAEGWAWAERSLQPGMTTANTGCLSFHHRGCLLPVLPKLHCGLGGLPLVRAKEIKRVQRAGESSLPVKGLLTVASAVIAVLWGRPSEVTGENEAQHD (peptide, listed as Homo sapiens)
chain: KGSVERRSVSLGHPAEGWAWAERSLQPGMTTANTGCLSFHHRGCLLPVLPKLHCGLGGLPLVRAKEIKRVQRAGESSLPVKGLLTVASAVIAVLWGRPSEVTGENEAQHD
notes: ILDR1 alternative splicing
B11: YAYKDFLWCFPFSLVFLQEIQICCHVSCLCCICCSTRICLGCLLELFLSRALRALHVLWNGFQLHCQ (peptide, listed as Homo sapiens)
chain: YAYKDFLWCFPFSLVFLQEIQICCHVSCLCCICCSTRICLGCLLELFLSRALRALHVLWNGFQLHCQ
B12: WGMELAASRRFSWDHHSAGGPPRVPSVRSGAAQVQPKDPLPLRTLAGCLARTAHLRPGAESLPQPQLHCT (peptide, listed as Homo sapiens)
chain: WGMELAASRRFSWDHHSAGGPPRVPSVRSGAAQVQPKDPLPLRTLAGCLARTAHLRPGAESLPQPQLHCT
notes: INCA1->CAMTA2 gene fusion
B13: PSGRRTKRLVTLRSGCAIQCWHPRAGPVPSALPHTERPPRLVRGAADPRTVTLGRSPAVMPRAPA (peptide, listed as Homo sapiens)
chain: PSGRRTKRLVTLRSGCAIQCWHPRAGPVPSALPHTERPPRLVRGAADPRTVTLGRSPAVMPRAPA
notes: CCNF alternative splicing
B14: LLEPFRRGEPGPRGLLSGSSRGGEGPGRSIEAAPATPLPCCRKNPCRPQPSRFLPPRVLLVIILPKLDCPKLGF (peptide, listed as Homo sapiens)
chain: LLEPFRRGEPGPRGLLSGSSRGGEGPGRSIEAAPATPLPCCRKNPCRPQPSRFLPPRVLLVIILPKLDCPKLGF
notes: AMACR alternative splicing

Key:
[1] = test system: CD8+ T cells in PBMCs from human patients with metastatic castrate-resistant prostate cancer; experiment: Patient PBMC restimulation assay (in vitro immunogenicity, TNFα/IFNγ intracellular flow cytometry); assay type: cell-based; settings: 9-mer peptide; for Maximum fold change over negative control: TNFα+IFNγ+CD8+ T cells, highest across PBMC donors evaluated; for Maximum frequency of TNFα^+IFNγ^+CD8^+ T cells (Percent): greatest frequency among all tested PBMC donors; for Immunogenic: patient PBMC restimulation
Experimental: PBMCs from human patients with metastatic castrate-resistant prostate cancer were thawed using media (RPMI 1640 supplemented with Glutamax, 10% HI FBS, and 1× Sodium Pyruvate). Cells were counted and plated in a 96 well round bottom microplate at a concentration of 250,000 viable cells per well. Lyophilized peptides were solubilized in 100% DMSO and diluted in media to 10 μg/mL. Neoantigen peptides were added in equal volume to PBMCs for a final concentration of 5 μg/mL. CEF Peptide Pool “Plus” (Cellular Technologies, Ltd.) was utilized as a positive control and DMSO at the same final concentration as the experimental peptides was utilized as a negative control. Human IL-15 (Peprotech) was added to all wells at final concentration of 10 ng/mL.
Plates were incubated at 37° C. (5% CO2) for a total of 13 days. Media was refreshed every 2 days with IL-15 (10 ng/mL final concentration) and IL-2 (R&D systems, 10 IU/mL final concentration). On day 12, PBMCs were re-stimulated with identical experimental peptides or controls, at same concentration as peptide stimulation on Day 1. After 1-hour incubation, protein Inhibitor Cocktail (eBioscience) was added to every well and plate was incubated overnight.
On day 13, cells were stained for intracellular flow cytometry analysis. The cells were washed with PBS and stained with Live/Dead Fixable Aqua Dead Cell stain (Thermo-Fisher). Following the live/dead stain, cells were blocked using Biotin-Free Fc Receptor Blocker (Accurate Chemical & Scientific Corp). Extracellular cellular flow panel ([…] per well in 50 μL) consisted of CD3 PerCP-Cy5.5 (Biolegend), CD4 BV421 (Biolegend), and CD8 APC-Cy7 (Biolegend). After extracellular staining, cells were fixed using Foxp3/fTranscription Factor Staining Buffer Set (eBioscience) and stained for intracellular proteins (1:50 dilution) using TNFα FITC (R&D Systems) and IFNγ BV785 (Biolegend). Cells were washed and resuspended in stain buffer and analyzed using a BD Celesta flow cytometer.
Flow cytometry cell staining analysis was completed using FlowJo v10. Cells were gated on live, singlet, CD3+ cells. The CD8+ T cells were analyzed for TNFα/IFNγ expression and the frequency of double positive TNFα/IFNγ CD8+ T cells was recorded. Responses were assessed to be positive when the frequency of double positive TNFα/IFNγ CD8+ T cells due to stimulation with an experimental peptide was increased greater than or equal to 2-fold over the DMSO only negative control for that patient. Peptides were analyzed in 1 to 7 patient samples.
The 9 mer fragments shown in Table 13 were assessed for their ability to activate T cells using the Patient PBMC restimulation assay described in Example 1 using TNFα and IFNγ production by CD8^+ T cells as a readout. Self-antigens shown in Table 15 were also used in the assays. […] PBMCs from ten patients were evaluated.

[2] = test system: CD8+ and CD4+ T cells (autologous CD3+ Pan-T cells isolated from human normal PBMCs); experiment: Exogenous autologous normal donor restimulation assay (15-mer overlapping peptide pools on CD1c+ dendritic cells, TNFα/IFNγ flow cytometry); assay type: cell-based; settings: 15-mer overlapping peptide pool; for Maximum Fold Change Over Background CD4+ cells / Maximum Fold Change Over Background CD8+ cells / Maximum Frequency of TNFα/IFNγ Double Positive CD4+ T cells / Maximum Frequency of TNFα/IFNγ Double Positive CD8+ T cells: Table 25; for Maximum Fold Change Over Background CD4+ cells: TNFα+IFNγ+ CD4+ T cells; for Maximum Fold Change Over Background CD4+ cells / Maximum Fold Change Over Background CD8+ cells: highest fold change over negative control across normal donors; for Maximum Fold Change Over Background CD8+ cells: TNFα+IFNγ+ CD8+ T cells; for Maximum Frequency of TNFα/IFNγ Double Positive CD4+ T cells / Maximum Frequency of TNFα/IFNγ Double Positive CD8+ T cells: highest frequency across normal donors; for Max. Fold Change over background CD4+ TNFαINFγ double positive DP / Max. Fold Change over background CD8+ TNFαINFγ double positive DP / Max. Frequency of CD4+ TNFαINFγ DP / Max. Frequency of CD8+ TNFαINFγ DP: Table 28, additional neoantigens, highest across normal donors
Summary of the method: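 Readout was intracellular TNFα/IFNγ flow cytometry on live CD3+ CD8+ and CD4+ cells after day-11 peptide restimulation. Stimulators were CD1c+ dendritic cells loaded with overlapping 15-mer peptide pools (2.5–10 μg/mL), irradiated, and cultured 12 days with autologous normal-donor Pan-T cells plus IL-15/IL-2. A response counted when ≥3-fold over DMSO control and at least 0.01%.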

Molecule | Maximum fold change over negative control [1] | Maximum frequency of TNFα^+IFNγ^+CD8^+ T cells (Percent) [1] | Immunogenic [1] | Maximum Fold Change Over Background CD4+ cells [2] | Maximum Fold Change Over Background CD8+ cells [2] | Maximum Frequency of TNFα/IFNγ Double Positive CD4+ T cells [2] | Maximum Frequency of TNFα/IFNγ Double Positive CD8+ T cells [2] | Max. Fold Change over background CD4+ TNFαINFγ double positive DP [2] | Max. Fold Change over background CD8+ TNFαINFγ double positive DP [2] | Max. Frequency of CD4+ TNFαINFγ DP [2] | Max. Frequency of CD8+ TNFαINFγ DP [2]
P59 (LHPDSGNMVENGCYLRR; listed as Homo sapiens) [Peptide P59] | 10.75 | 3.010% | Yes | – | – | – | – | – | – | – | –
P27 (LHPQRETFTPRWSGANYWKLAFPVGAEGTFPAAATQRGVVRPA; listed as Homo sapiens) [Peptide P27] | 3.43 | 0.430% | Yes | – | – | – | – | – | – | – | –
B1 | – | – | – | 50.19 | 5.56 | 0.39 | 0.1 | – | – | – | –
B2 | – | – | – | – | – | – | – | 128.76 | 6.35 | 0.18 | 0.6
B3 | – | – | – | – | – | – | – | 9.48 | 16.25 | 0.01 | 0.26
B4 | – | – | – | 4.89 | 7.92 | 0.04 | 0.38 | – | – | – | –
B5 | – | – | – | – | – | – | – | 113.91 | 4.02 | 0.43 | 0.35
B6 | – | – | – | – | – | – | – | 78.51 | 4.96 | 0.61 | 0.07
B7 | – | – | – | – | – | – | – | 7.86 | 2.61 | 0.11 | 0.1
B8 | – | – | – | – | – | – | – | 293.94 | 4.72 | 1.48 | 0.09
B9 | – | – | – | 36.13 | 8.89 | 0.04 | 0.16 | – | – | – | –
B10 | – | – | – | – | – | – | – | 184.87 | 6.85 | 0.63 | 0.1
B11 | – | – | – | 111.97 | 4.17 | 0.87 | 0.08 | – | – | – | –
B12 | – | – | – | 7.15 | 1.89 | 0.04 | 0.08 | – | – | – | –
B13 | – | – | – | – | – | – | – | 129.8 | 1544.74 | 0.49 | 58.7
B14 | – | – | – | – | – | – | – | 60.93 | 11.32 | 0.23 | 0.43
